Measurements taken from publication PMC12615485, “New dengue virus inhibitors targeting NS3-NS5 interaction identified by in silico screening” (Frontiers in Microbiology, 2025).

How the values were obtained:
[1] = target: NHS-NS5(270-900): 6His-NS5 RdRp(270-900) labelled with RED-NHS (DENV-2 NGC strain); test: MST
[2] = target: 6His-NS5 RdRp(270-900) of DENV-2 NGC strain (DENV-2 NGC strain); test: ELISA

| Substance | Kd [1] | IC50 [2] |
| --- | --- | --- |
| 6His-NS3(177-618), helicase portion of NS3 (domain or fragment) | 7.2 µM | – |
| NS3(566-585) peptide of DENV-2 | – | 127 µM |
